Laboratory results reported in patent EP1841452B1.

Target: mouse TNFR1 on L929 cells (mouse)
Experiment: cell-based or functional assay

“anti-TNFR1 antibody AF-425-PB (R&D Systems)” gave an ND50, modified L929 cytotoxicity assay without TNF-α (agonism) of 100 pM.
In the case of “anti-TNFR1 antibody MAB430 (R&D Systems)”, the ND50, modified L929 cytotoxicity assay without TNF-α (agonism) is reported as 10000 pM.
